Source: patent publication US20190062438A1 (CSL, published 2019)

Assays:
Experiment in all cases: SPR, kinetics, Fab over captured mutant
[1] = molecular target: T1, shCD131 H42A (human, UniProt P32927 17-438)
T1 construct: C-terminal 6xHis
T1 sequence: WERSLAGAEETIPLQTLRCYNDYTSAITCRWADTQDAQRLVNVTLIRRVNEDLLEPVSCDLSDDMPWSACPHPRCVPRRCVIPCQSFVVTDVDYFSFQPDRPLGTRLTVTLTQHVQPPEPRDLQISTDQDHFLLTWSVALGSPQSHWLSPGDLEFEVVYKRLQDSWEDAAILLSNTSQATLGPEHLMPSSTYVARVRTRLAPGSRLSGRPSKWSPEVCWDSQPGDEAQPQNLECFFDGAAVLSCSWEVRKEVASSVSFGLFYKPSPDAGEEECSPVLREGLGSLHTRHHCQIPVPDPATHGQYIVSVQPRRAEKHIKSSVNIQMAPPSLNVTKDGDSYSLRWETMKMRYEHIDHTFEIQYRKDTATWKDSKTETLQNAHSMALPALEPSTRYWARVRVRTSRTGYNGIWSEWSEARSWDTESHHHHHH

[2] = molecular target: T2, shCD131 Q339A (human, UniProt P32927 17-438)
T2 construct: C-terminal 6xHis
T2 sequence: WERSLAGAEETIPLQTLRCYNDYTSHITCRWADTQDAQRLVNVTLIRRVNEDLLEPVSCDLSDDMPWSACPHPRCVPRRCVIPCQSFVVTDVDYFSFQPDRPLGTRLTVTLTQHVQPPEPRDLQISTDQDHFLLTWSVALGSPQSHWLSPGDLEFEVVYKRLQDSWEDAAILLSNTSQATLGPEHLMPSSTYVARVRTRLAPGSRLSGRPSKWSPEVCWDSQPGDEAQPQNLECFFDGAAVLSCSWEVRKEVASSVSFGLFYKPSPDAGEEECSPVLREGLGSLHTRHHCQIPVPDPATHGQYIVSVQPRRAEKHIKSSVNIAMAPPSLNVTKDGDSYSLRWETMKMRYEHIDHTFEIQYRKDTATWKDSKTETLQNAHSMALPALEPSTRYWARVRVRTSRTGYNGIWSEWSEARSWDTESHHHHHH

[3] = molecular target: T3, shCD131 T419A (human, UniProt P32927 17-438)
T3 construct: C-terminal 6xHis
T3 sequence: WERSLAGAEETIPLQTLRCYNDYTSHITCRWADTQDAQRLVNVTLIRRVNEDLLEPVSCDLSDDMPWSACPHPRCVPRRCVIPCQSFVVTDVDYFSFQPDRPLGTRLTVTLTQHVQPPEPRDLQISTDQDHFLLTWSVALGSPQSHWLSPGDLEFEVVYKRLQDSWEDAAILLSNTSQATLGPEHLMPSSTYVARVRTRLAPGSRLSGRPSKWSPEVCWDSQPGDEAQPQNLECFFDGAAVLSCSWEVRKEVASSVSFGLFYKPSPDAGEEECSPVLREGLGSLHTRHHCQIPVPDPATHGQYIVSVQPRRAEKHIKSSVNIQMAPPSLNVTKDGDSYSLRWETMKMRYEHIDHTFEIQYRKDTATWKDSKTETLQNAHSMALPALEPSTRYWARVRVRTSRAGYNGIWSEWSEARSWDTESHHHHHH

[4] = molecular target: T4, shCD131 G420A (human, UniProt P32927 17-438)
T4 construct: C-terminal 6xHis
T4 sequence: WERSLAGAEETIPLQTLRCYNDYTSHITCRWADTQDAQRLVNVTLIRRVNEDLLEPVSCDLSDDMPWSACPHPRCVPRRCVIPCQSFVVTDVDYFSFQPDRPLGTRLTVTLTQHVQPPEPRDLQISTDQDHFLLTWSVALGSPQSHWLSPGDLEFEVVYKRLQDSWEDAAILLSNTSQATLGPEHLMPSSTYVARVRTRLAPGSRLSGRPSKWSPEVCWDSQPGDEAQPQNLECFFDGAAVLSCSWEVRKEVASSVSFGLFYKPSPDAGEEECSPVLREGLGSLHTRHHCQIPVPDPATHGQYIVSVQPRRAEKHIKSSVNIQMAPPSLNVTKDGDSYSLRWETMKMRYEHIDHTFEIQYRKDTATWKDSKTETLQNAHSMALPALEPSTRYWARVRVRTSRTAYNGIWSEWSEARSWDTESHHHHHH

Kd [1]: 41 nM | Kd [2]: 144 nM | Kd [3]: 53 nM | Kd [4]: 63 nM
B1: 9A2 Fab (Fab, V domains shown)
VH: EVQLLESGGGLVQPGGSLRLSCAASGFTFSHYHMLWVRQAPGKGLEWVSSIRSSGGFTYYADSVKGRFTISRDNSKNTLYLQMNSLRAEDTAVYYCARFYDSFFDIWGQGTMVTVSS
VL: DIQMTQSPSSVSASVGDRVTITCRASQGISSWLAWYQQKPGKAPKLLIYAASSLQSGVPSRFSGSGSGTDFTLTISSLQPEDFATYYCQQANSFPITFGQGTRLEIKR
notes: also called recombinant Fab of 9A2
